Test [1] addresses T1, N-Term Biotin Nav1.7 (3-1) peptide, mouse (mouse, not fully specified; N-terminal biotin attached via a G4S linker).
T1 construct: Synthetic peptide; also called Mouse Nav1.7 3-1 N-term biotin
T1 peptide: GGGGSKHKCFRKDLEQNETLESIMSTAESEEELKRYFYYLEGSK
Put plainly: ELISA on coated peptide. In a few lines: (§1)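 Binding graded from absorbance at OD450 for antibodies applied at 1 μg/ml (− below 0.2, + 0.2–1, ++ 1–2, +++ 2–4; NT not tested); antibodies were also run at 0.1 μg/mL. Biotin-peptides at 0.4 μg/mL on avidin-coated plates, other peptides at 4 μg/mL; 1 h RT binding; HRP anti-IgG/TMB detection.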
Background: In an ELISA, binding on a coated surface is turned into a signal by an enzyme label.

Test [2] addresses T2, Native Nav1.7 (3-1) peptide, rat (rat).
T2 construct: Synthetic peptide; also called Rat Nav1.7 3-1 native
T2 peptide: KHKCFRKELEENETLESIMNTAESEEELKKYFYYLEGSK
Nature of the test: ELISA on coated peptide. An outline of the steps:
as §1

In test [3] the target is T3, C-Term Biotin Nav1.7 (3-3) peptide, mouse (mouse, C-terminal biotin attached via a G4S linker).
T3 construct: Synthetic peptide; also called Mouse Nav1.7 3-3 C-term biotin
T3 peptide: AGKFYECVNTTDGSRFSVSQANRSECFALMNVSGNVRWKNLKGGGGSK
Nature of the test: SPR, captured antibody, peptide analyte. An outline of the steps:
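Peptide analytes flowed at multiple concentrations over anti-Nav1.7 antibodies held by an anti-Fc capture surface. After reference-surface and buffer-blank subtraction, a global 1:1 Langmuir fit gave ka and kd, with KD as kd/ka and dissociative half-life as ln2/kd.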

For test [4], the target named is T4, N-Term Biotin-Nav1.7 (3-3) peptide, human (same sequence of EC3-3 for mulatta) (human (same sequence of EC3-3 for …, not fully specified; N-terminal biotin attached via a G4S linker).
T4 construct: ELISA peptide
T4 peptide: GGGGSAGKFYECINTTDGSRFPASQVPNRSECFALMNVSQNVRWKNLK
Nature of the test: ELISA on coated peptide, antibody 1 ug/ml, OD450 grade; Human. How it is done:
(§2) Anti-Naᵥ 1.7 antibodies were tested for their ability to bind to the Naᵥ 1.7 peptides. The various peptides were coated overnight onto 96-well Nunc Immunosorp plates at a concentration of 4 μg/mL in PBS, followed by blocking for 1 hour in a suitable blocking agent. For biotinylated peptides, avidin was first coated on Nunc Immunosorp plates at 2 μg/mL in PBS overnight, followed by blocking as described, and the plate was then coated with biotinylated peptides at a concentration of 0.4 μg/mL and incubated for 1 hour at room temperature. Purified anti-Naᵥ 1.7 antibodies were diluted to a final concentration of 0.1 μg/mL and 1.0 μg/mL and added to the wells of the coated microtiter plates followed by incubation for 1 hour at room temperature. Bound antibodies were detected with horseradish peroxidase (HRP) conjugated anti-mouse or anti-human IgG (Jackson Immuno Research Lab, West Grove, Pa.) depending on the antibody species and developed by colorimetric response using tetramethylbenzidine (TMB) substrate (BD Biosciences). Absorbance was read at OD₄₅₀ on a plate reader for 0.1 second.
(§3) Values in Table 11 represent absolute binding ranges (at OD450) to plate-coated peptides for antibodies added at 1 μg/ml as follows: OD450<0.2: −; 0.2<OD450<1: +; 1<OD450<2: ++; 2<OD450<4: +++; NT: Not Tested.

Test [5] addresses T5, Native Nav1.7 (3-3) peptide, human (human).
T5 construct: Synthetic peptide, unbiotinylated; also called Human Nav1.7 3-3 native; Nav1.7 3-3 native peptide
T5 peptide: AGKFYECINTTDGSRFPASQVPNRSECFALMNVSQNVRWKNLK
Nature of the test: Biacore (second token of ELISA/Biacore summary). On the technique in general: In SPR one partner is held on a chip, and binding of the other changes the refractive index at the surface.

For test [6], the target named is T4, N-Term Biotin-Nav1.7 (3-3) peptide, …. Nature of the test: ELISA on coated peptide, antibody 1 ug/ml, OD450 grade; Monkey column. Here is the method: as §2, §3
The target in test [7] is T5, Native Nav1.7 (3-3) peptide, human. Nature of the test: Biacore (second token of ELISA/Biacore summary).

Like-named read-outs stand apart in the source and are kept apart here.

B1: H1M879N (antibody, V domains shown)
VH: EVQLVESGGGLVKPGGSLRLSCAASGFTFSSYTIHWVRQAPGKGLEWVSSISSSSSYIYYVDSVKGRFTISRDNAKNSVYLQMNSLRAEDTAVYYCATSSITARGYFDYWGQGTLVTVSS
VL: EIVLTQSPATLSLSPGERVTLSCRASQSVSSYLAWYQQKPGQAPRLLIYDASNRATGIPARFSGSGSGTDFTLTISSLEPEDFAVYYCQQRNIWPPTFGQGTKVEIK
notes: Hybridoma-derived
With B1, the OD450 in test [1] and in test [2] was < 0.2 od throughout.

B2: H1M852N (antibody, V domains shown)
VH: QVQLVESGGGVVQPGRSLTLSCAASGFMFNRFGMHWVRQAPGKGLDWVAVIWYDGSNKYYADSVKGRFTISRDNSKNTLYLQVNSLRAEDTAVYYCAREGTPHYYDSSGLDYWGQGTLVTVSS
VL: AIQMTQSPSSLSAYVGDRVTITCRASQDIRNDLGWYQQKPGKAPNLLIYDISSLQSGVPSRFSGSGSGTDFTLTISSLQPEDFATYYCLQDYNYPLTFGGGTKVEIK
notes: constant region may differ; also called H4H852N
B2: in test [3], the binding result is recorded as “no binding”. The OD450 in test [4] and in test [6] was 1 to 2 od in each case. Further, the Kd in test [5] and in test [7] was > 200 nM each time.

Source of the values: patent US20160024208A1 (Regeneron, published 2016).
